Data: publication PMC3448977 (Biochemistry, 2012)
Blank lines part the entries; values can stand above or below the molecule they belong to.

Columns and labels:
BMP-9 (Homo sapiens) = BMP-9 (Homo sapiens) (UniProt Q9UK05); settings: cited from earlier work
Human BMP-9 = target: T1, Human BMP-9 (human, UniProt Q9UK05 320-429); test: SPR
T1 sequence (looked up): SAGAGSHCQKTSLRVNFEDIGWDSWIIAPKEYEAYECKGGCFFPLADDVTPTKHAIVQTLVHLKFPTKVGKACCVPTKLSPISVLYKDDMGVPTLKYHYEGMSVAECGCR

Molecule: Fc-Alk1 ECD (from UniProt P37023)
Kd (BMP-9 (Homo sapiens)): 0.0025 µM

Kd (Human BMP-9): 5.7 µM
B1: Alk1 extracellular domain with Arg53-Glu54-Leu55 swapped for Asp-Phe-Gln of Alk3 (Alk1-DFQ) (domain or fragment, human)
chain: GSHMDPVKPSRGPLVTCTCESPHCKGPTCRGAWCTVVLVREEGRHPQEHRGCGNLHDFQCRGRPTEFVNHYCCDSHLCNHNVSLVLEATQPPSEQPGTDGQ
